# Laboratory results as given in publication doi:10.1101/243402v1.
# B1: SjaM1Pase2 (Saccharina japonica) (protein)
# chain: MEQATANKDISILFDFDGTIGDTETPAMEVAFWELAPYLPDTTPDKLDNLMPEFVRDNAGKAFEFMVETVDEERKAAGMDSVEEMFAAKSEPQNMLDAVDPHRKKFGLKSFAELRAPEGGEAATLLIQQKTETVDALSKIAQPCNGVREVLAALTAATVPFCISTTSPKPRVPASITACGLDEYFPPDKVHSGESDFDPPRFKPNPSVYLKAAETEGKEPVNCIAVEDSGSGVGSASNAGVGLTVGYVGASHIPEYKKDTHAEMLMAGGRAENGKGAEIVISDMKDLLKIIDFFAGAKTAGKLAPFDFPTAMVASMQQPVWVHGKKA
# Substrate: O=P(O)(O)OC[C@@H](O)[C@@H](O)[C@H](O)[C@H](O)CO
# Assay: purified protein
# Conditions: 100 mM Tris-HCl
protein,measurement,value
B1,Km,20 µM
